Test results taken from article PMC9186069, “Borrelia miyamotoi FbpA and FbpB Are Immunomodulatory Outer Surface Lipoproteins With Distinct Structures and Functions” (Frontiers in Immunology, 2022).

T1: C1r zymogen (human, UniProt P00736 18-705)
T1 construct: also called zymogen form of full-length purified C1r; zymogen C1r; source: bought: Complement Technology, Inc. (purified)
T1 sequence: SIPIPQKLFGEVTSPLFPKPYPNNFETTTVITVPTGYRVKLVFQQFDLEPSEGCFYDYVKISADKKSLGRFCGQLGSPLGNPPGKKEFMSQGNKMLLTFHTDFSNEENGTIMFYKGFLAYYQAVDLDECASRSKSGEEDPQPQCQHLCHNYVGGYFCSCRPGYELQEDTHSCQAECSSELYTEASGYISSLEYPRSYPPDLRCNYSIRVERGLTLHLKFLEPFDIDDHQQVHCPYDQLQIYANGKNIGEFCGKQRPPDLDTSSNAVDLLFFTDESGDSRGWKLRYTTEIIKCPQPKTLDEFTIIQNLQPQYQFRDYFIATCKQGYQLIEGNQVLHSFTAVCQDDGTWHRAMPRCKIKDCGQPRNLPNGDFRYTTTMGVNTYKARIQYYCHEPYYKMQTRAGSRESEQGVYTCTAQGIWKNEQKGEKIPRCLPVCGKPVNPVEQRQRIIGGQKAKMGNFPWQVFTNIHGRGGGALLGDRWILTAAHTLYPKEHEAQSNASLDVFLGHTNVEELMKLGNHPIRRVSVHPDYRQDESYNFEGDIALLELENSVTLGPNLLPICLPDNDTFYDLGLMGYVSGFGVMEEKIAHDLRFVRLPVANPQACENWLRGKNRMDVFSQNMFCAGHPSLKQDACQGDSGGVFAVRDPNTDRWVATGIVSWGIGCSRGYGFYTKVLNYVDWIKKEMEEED

B1: FbpB-C (domain or fragment)
chain: DNQYKFKLKNITDSVEQALKIAKQIKDDLDIIEFHRIKLSNHYGIRAEEHEKQTAREELSKFSKDKLEADLKKLLSEIEKSLNAATILITYNDYGGNLQSDLSAKTTLEALKTEVSSLITKIQDFNNKDHQAYPTSYYNDYQTYQALRNPYSKLTLVKDLLTRTGIVAR
B2: FbpA-C (domain or fragment)
chain: GSTGSDNRYKSYLEGVRYNVSAAIGSIDKIYNNYKLFEEQRTKMYSTRLDTVTKDQAKKEAEKFTKEELEKDLKELLNYIQVSAKTATNFVYQKEQYAKQRLDKLETEVKTLISEVQGQSHPYEAYKAIVRSKFLQMKDSLEVVKGVIDRDGPWY
notes: Made from pT7HMT-FbpA-C; also called FbpA(222-371); C-terminal truncation construct of B. miyamotoi FbpA; source: E. coli BL21 (DE3), purified (Ni column, TEV, gel filtration)

How the values were obtained:
Details in all cases: both partners purified
active C1r = active C1r (human, UniProt P00736, activated two-chain form, cleaved between 463 and 464 (cleavage limits from UniProt chain features), heavy and light chains disulfide-linked; plasma-purified glycoprotein; native C1r forms a Ca-depend); test: SPR; FbpA-C or FbpB-C immobilised by amine coupling; full-length C1r zymogen or active C1r injected, fivefold dilution series 0-100 nM, single cycle, final dissociation 1 hour; Biacore T200, 25°C; kinetic fits
C1r-CCP2-SP = target: T2, C1r-CCP2-SP (human); test: SPR; FbpA-C, FbpB-C or FbpA DA-C immobilised by amine coupling; C1r-CCP2-SP injected, twofold dilution series 0-100 nM, multi-cycle; Biacore T200, 25°C, 30 μL/min; kinetic fits
T2 construct: source: recombinant (pT7HMT-C1r-CCP2-SP), purified by previously published protocols with a final gel filtration step

C1r zymogen = target: T1, C1r zymogen; test: SPR; FbpA-C or FbpB-C immobilised by amine coupling; full-length C1r zymogen or active C1r injected, fivefold dilution series 0-100 nM, single cycle, final dissociation 1 hour; Biacore T200, 25°C; kinetic fits

T2 sequence (A0A0U2RP97 entry or part of it): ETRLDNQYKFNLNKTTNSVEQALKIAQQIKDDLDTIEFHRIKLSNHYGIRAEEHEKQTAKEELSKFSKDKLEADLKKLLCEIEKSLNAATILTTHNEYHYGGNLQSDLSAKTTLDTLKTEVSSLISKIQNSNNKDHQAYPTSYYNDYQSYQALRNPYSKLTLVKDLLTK

| Binder | Kd (active C1r) | koff (active C1r) | kon (active C1r) | Kd (C1r-CCP2-SP) | koff (C1r-CCP2-SP) | kon (C1r-CCP2-SP) | Kd (C1r zymogen) | koff (C1r zymogen) | kon (C1r zymogen) |
| --- | --- | --- | --- | --- | --- | --- | --- | --- | --- |
| B1 | 1100 pM | 7.6e-05 s⁻¹ | 68000 M⁻¹ s⁻¹ | 1400 pM | 0.00055 s⁻¹ | 390000 M⁻¹ s⁻¹ | – | – | – |
| B2 | 390 pM | 2.7e-05 s⁻¹ | 68000 M⁻¹ s⁻¹ | – | – | – | 850 pM | 1.9e-05 s⁻¹ | 22000 M⁻¹ s⁻¹ |
